According to patent US20250368978A1, “SQUALENE HOPENE CYCLASE VARIANTS FOR PRODUCING SCLAREOLIDE” (INTERNATIONAL FLAVORS & FRAGRANCES INC., priority 2022, published 2025):

experiment: Effect of single mutations of GmSHC on activity (site saturation mutagenesis / summary of variants); format: biochemical, Gluconobacter morbifer; conditions: single position in GmSHC, SEQ ID NO: 2 numbering
From the text: Three different approaches were taken to generate SHC variants: rational mutagenesis (site-directed mutagenesis), semi-rational mutagenesis (via site-saturation library), and random mutagenesis (error prone PCR). Variants were expressed in a heterologous system and screened by GC.
To improve the conversion of HFA to sclareolide, GmSHC was mutated at one or more of the residues at position 45, 54, 178, 184, 222, 278, 284, 326, 348, 574 and 683 of SEQ ID NO: 2. Silent mutations at positions 249, 348, and 574 identified in an error prone library, were also introduced in the GmSHC of SEQ ID NO: 2.

Row | Molecule | effect of mutation on activity
1 | M184T: GmSHC mutant M184T from site saturation mutagenesis (protein, Gluconobacter morbifer, GmSHC mutant M184T from site saturation mutagenesis) MSPADISTKSSSFQRLDNMLPEAVSSACDWLIDQQKPDGHWVGPVESNACMEAQWCLALWFLGQEDHPLRPRLAQALLEMQREDGSWGIYVGADHGDINTTVEAYAALRSMGYAADMPIMAKSAAWIQQKGGLRNVRVFTRYWLALIGEWPWDKTPNLPPEIIWLPDNFIFSIYNFAQWARATTMPLTILSARRPSRPLLPENRLDGLFPEGRENFDYELPVKGEEDLWGRFFRAADKGLHSLQSFPVRRFVPREAAIRHVIEWIIRHQDADGGWGGIQPPWIYGLMALSVEGYPLHHPVLAKAMDALNDPGWRRDKGDASWIQATNSPVWDTMLAVLALHDAGAEDRYSPQMDKAIGWLLDRQVRVKGDWSIKLPDTEPGGWAFEYANDKYPDTDDTAVALIALAGCRHRPEWRERDIEGAISRGVNWLLAMQSSSGGWGAFDKDNNRSILTKIPFCDFGEALDPPSVDVTAHVLEAFGLLGISRNHPSVQKALAYIRSEQERNGAWFGRWGVNYVYGTGAVLPALAAIGEDMTQPYIVRACDWLMSVQQENGGWGESCASYMDINAVGHGVATASQTAWALIGLLAAKRPKDREAIARGCQFLIERQEDGSWTEEEYTGTGFPGYGVGQAIKLDDPSLPDRLLQGAELSRAFMLRYDLYRQYFPVMALSRARRMMKEDASAAA | increase in activity
2 | Y284W: GmSHC variant Y284W from site saturation mutagenesis (protein) MSPADISTKSSSFQRLDNMLPEAVSSACDWLIDQQKPDGHWVGPVESNACMEAQWCLALWFLGQEDHPLRPRLAQALLEMQREDGSWGIYVGADHGDINTTVEAYAALRSMGYAADMPIMAKSAAWIQQKGGLRNVRVFTRYWLALIGEWPWDKTPNLPPEIIWLPDNFIFSIYNFAQWARATMMPLTILSARRPSRPLLPENRLDGLFPEGRENFDYELPVKGEEDLWGRFFRAADKGLHSLQSFPVRRFVPREAAIRHVIEWIIRHQDADGGWGGIQPPWIWGLMALSVEGYPLHHPVLAKAMDALNDPGWRRDKGDASWIQATNSPVWDTMLAVLALHDAGAEDRYSPQMDKAIGWLLDRQVRVKGDWSIKLPDTEPGGWAFEYANDKYPDTDDTAVALIALAGCRHRPEWRERDIEGAISRGVNWLLAMQSSSGGWGAFDKDNNRSILTKIPFCDFGEALDPPSVDVTAHVLEAFGLLGISRNHPSVQKALAYIRSEQERNGAWFGRWGVNYVYGTGAVLPALAAIGEDMTQPYIVRACDWLMSVQQENGGWGESCASYMDINAVGHGVATASQTAWALIGLLAAKRPKDREAIARGCQFLIERQEDGSWTEEEYTGTGFPGYGVGQAIKLDDPSLPDRLLQGAELSRAFMLRYDLYRQYFPVMALSRARRMMKEDASAAA | increases activity
3 | A683E: GmSHC mutation A683E in the C-terminal domain (protein, Gluconobacter morbifer, GmSHC mutation A683E in the C-terminal domain) MSPADISTKSSSFQRLDNMLPEAVSSACDWLIDQQKPDGHWVGPVESNACMEAQWCLALWFLGQEDHPLRPRLAQALLEMQREDGSWGIYVGADHGDINTTVEAYAALRSMGYAADMPIMAKSAAWIQQKGGLRNVRVFTRYWLALIGEWPWDKTPNLPPEIIWLPDNFIFSIYNFAQWARATMMPLTILSARRPSRPLLPENRLDGLFPEGRENFDYELPVKGEEDLWGRFFRAADKGLHSLQSFPVRRFVPREAAIRHVIEWIIRHQDADGGWGGIQPPWIYGLMALSVEGYPLHHPVLAKAMDALNDPGWRRDKGDASWIQATNSPVWDTMLAVLALHDAGAEDRYSPQMDKAIGWLLDRQVRVKGDWSIKLPDTEPGGWAFEYANDKYPDTDDTAVALIALAGCRHRPEWRERDIEGAISRGVNWLLAMQSSSGGWGAFDKDNNRSILTKIPFCDFGEALDPPSVDVTAHVLEAFGLLGISRNHPSVQKALAYIRSEQERNGAWFGRWGVNYVYGTGAVLPALAAIGEDMTQPYIVRACDWLMSVQQENGGWGESCASYMDINAVGHGVATASQTAWALIGLLAAKRPKDREAIARGCQFLIERQEDGSWTEEEYTGTGFPGYGVGQAIKLDDPSLPDRLLQGAELSRAFMLRYDLYRQYFPVMALSRARRMMKEDASEAA | positive effect on activity
